# Source: paper PMC11138481 (Molecular cell, 2023)
# Ends that are not written are not given here. * marks the point of attachment. Crotonyl(E) = C/C=C/C(=O)*
# Key:
# [1] = biological target: GAS41 YEATS domain (residues 11–150) (human, UniProt O95619 11-150); experiment: ITC
# [2] = biological target: GFP-GAS41 H43S protein (recombinant) (human, UniProt O95619 1-227, H43S); experiment: MST
# Sequence of GFP-GAS41 H43S protein (recombinant) (O95619 whole entry H43S): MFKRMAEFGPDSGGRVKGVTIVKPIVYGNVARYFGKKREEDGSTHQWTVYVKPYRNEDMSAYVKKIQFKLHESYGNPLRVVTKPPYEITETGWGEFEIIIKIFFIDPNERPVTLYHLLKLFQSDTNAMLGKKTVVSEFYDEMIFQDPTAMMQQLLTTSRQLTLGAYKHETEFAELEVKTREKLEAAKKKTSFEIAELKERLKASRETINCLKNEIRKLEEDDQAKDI
# Sequence of GAS41 YEATS domain (residues 11–150) (O95619 11-150): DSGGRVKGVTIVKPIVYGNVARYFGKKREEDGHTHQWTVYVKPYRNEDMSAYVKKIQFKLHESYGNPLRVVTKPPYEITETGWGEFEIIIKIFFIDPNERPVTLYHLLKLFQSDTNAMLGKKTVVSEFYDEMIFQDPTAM
Kd [1],fold reduction in binding against GAS41 wt [2],Binder
22.9 µM,6 fold,ATKAARK(Crotonyl(E))SAPATG [Synthesized H3 K27cr (a.a. 21-33) peptide]
51.5 µM,~2 fold,ATKAARK(Ac)SAPATG [Synthesized H3 K27ac (a.a. 21-33) peptide]
